The experiment addresses T1, cynomolgus TREM-1 (cTREM-1 protein, SPR analyte of Examples 9 and 11) (cynomolgus monkey).
T1 construct: Soluble analyte; also called cyno TREM1
T1 chain: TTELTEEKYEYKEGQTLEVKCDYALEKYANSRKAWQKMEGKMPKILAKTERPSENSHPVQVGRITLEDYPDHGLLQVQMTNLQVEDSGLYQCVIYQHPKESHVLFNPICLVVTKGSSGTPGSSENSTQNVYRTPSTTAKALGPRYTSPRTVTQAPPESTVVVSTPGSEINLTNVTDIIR
The experiment is described as follows: SPR, mAb captured, cTREM-1 analyte. The protocol: Binding studies were performed on a ProteOn Analyzer (BioRad) that measures molecular interactions in real time through surface plasmon resonance. Experiments were run at 25° C. and the samples were stored at 15° C. in the sample compartment. The signal (RU, response units) reported by the ProteOn is directly correlated to the mass on the individual sensor chip surfaces in six parallel flow cells. Anti-human Fc monoclonal or anti-murine Fc polyclonal antibody from Biacore human or mouse Fc capture kits were immobilized in horizontal direction onto flow cells of a GLM sensor chip according to the manufacturer's instructions. The final immobilization level of capture antibody was approximately 2600-6000 RU in different experiments. […] The GLM surface was regenerated after each injection cycle of analyte via two 18 s injections of 10 mM Glycine, pH 1.7 and 50 mM NaOH at 100 μl/min. This regeneration step removed the anti-TREM-1 antibody and any bound TREM-1 protein from the immobilized capture antibody surface, and allowed for the subsequent binding of the next interaction sample pair.
For orientation: In SPR one partner is held on a chip, and binding of the other changes the refractive index at the surface.

B1: mAb 0121 (antibody, V domains shown)
VH: EVQLVESGGGLVQPGGSLKLSCAASGFTFSTYAMHWVRQASGKGLEWVGRIRTKSSNYATYYAASVKGRFTISRDDSKNTAYLQMNSLKTEDTAVYYCVRDMGQRRQFAYWGQGTLVTVSS
VL: DIVMTQSPDSLAVSLGERATINCRASESVDTFDYSFLHWYQQKPGQPPKLLIYRASNLESGVPDRFSGSGSGTDFTLTISSLQAEDVAVYYCQQSNEDPYTFGQGTKLEIK
notes: recombinant; also called 14F113/14F69 hz variant HC T93V; 14F113 hz variant HC T93V
Molecule B1 came in with a Kd of 0.94 nM.

By Kd is commonly meant the constant that tells how readily two partners part at equilibrium.

Source of the values: patent publication US20210253697A1 (Novo Nordisk, published 2021).
